Legend:
Assay in all cases: capture ELISA on coated 1.14.4; relative to silent alanine substitutions
[1] = biological target: T1, hPD-L1_ECD.His point mutant N183A (human, UniProt Q9NZQ7 19-238)
T1 construct: extracellular domain
Description: (§1) After interacting with the supernatant that contains quantified PD-L1 mutant or human/mouse PD-L1_ECD.His protein (Sino Biological, China), HRP conjugated anti-His antibody (1:5000; Rockland Immunochemicals, Pottstown, PA) was added as detection antibody. Absorbance was normalized according to the average of control mutants. After setting an additional cutoff to the binding fold change (<0.55), the final determined epitope residues were identified.
(§2) The observed binding reductions most probably resulted from the instability or even collapse of hPD-L1 structure after alanine substitutions. After setting an additional cutoff to the binding fold change (<0.55), the final determined epitope residues were listed in Table 3.

[2] = biological target: T2, hPD-L1_ECD.His point mutant T181A (human, UniProt Q9NZQ7 19-238)
T2 construct: extracellular domain
Description: as §1, §2

[3] = biological target: T3, hPD-L1_ECD.His point mutant A98G (human, UniProt Q9NZQ7 19-238)
T3 construct: extracellular domain
Description: as §1, §2

[4] = biological target: T4, hPD-L1_ECD.His point mutant M115A (human, UniProt Q9NZQ7 19-238)
T4 construct: extracellular domain
Description: as §1, §2

[5] = biological target: T5, hPD-L1_ECD.His point mutant V147A (human, UniProt Q9NZQ7 19-238)
T5 construct: extracellular domain
Description: as §1, §2

[6] = biological target: T6, hPD-L1_ECD.His point mutant L74A (human, UniProt Q9NZQ7 19-238)
T6 construct: extracellular domain
Description: as §1, §2

[7] = biological target: T7, hPD-L1_ECD.His point mutant D122A (human, UniProt Q9NZQ7 19-238)
T7 construct: extracellular domain
Description: as §1, §2

[8] = biological target: T8, hPD-L1_ECD.His point mutant K62A (human, UniProt Q9NZQ7 19-238)
T8 construct: extracellular domain
Description: as §1, §2

[9] = biological target: T9, hPD-L1_ECD.His point mutant N63A (human, UniProt Q9NZQ7 19-238)
T9 construct: extracellular domain
Description: as §1, §2

[10] = biological target: T10, hPD-L1_ECD.His point mutant Y81A (human, UniProt Q9NZQ7 19-238)
T10 construct: extracellular domain
Description: as §1, §2

[11] = biological target: T11, hPD-L1_ECD.His point mutant L106A (human, UniProt Q9NZQ7 19-238)
T11 construct: extracellular domain
Description: as §1, §2

[12] = biological target: T12, hPD-L1_ECD.His point mutant E218A (human, UniProt Q9NZQ7 19-238)
T12 construct: extracellular domain
Description: as §1, §2

[13] = biological target: T13, hPD-L1_ECD.His point mutant N35A (human, UniProt Q9NZQ7 19-238)
T13 construct: extracellular domain
Description: as §1, §2

[14] = biological target: T14, hPD-L1_ECD.His point mutant Q107A (human, UniProt Q9NZQ7 19-238)
T14 construct: extracellular domain
Description: as §1, §2

[15] = biological target: T15, hPD-L1_ECD.His point mutant A109G (human, UniProt Q9NZQ7 19-238)
T15 construct: extracellular domain
Description: as §1, §2

[16] = biological target: T16, hPD-L1_ECD.His point mutant R186A (human, UniProt Q9NZQ7 19-238)
T16 construct: extracellular domain
Description: as §1, §2

[17] = biological target: T17, hPD-L1_ECD.His point mutant D215A (human, UniProt Q9NZQ7 19-238)
T17 construct: extracellular domain
Description: as §1, §2

[18] = biological target: T18, hPD-L1_ECD.His point mutant S34A (human, UniProt Q9NZQ7 19-238)
T18 construct: extracellular domain
Description: as §1, §2

[19] = biological target: T19, hPD-L1_ECD.His point mutant K105A (human, UniProt Q9NZQ7 19-238)
T19 construct: extracellular domain
Description: as §1, §2

[20] = biological target: T20, hPD-L1_ECD.His point mutant K185A (human, UniProt Q9NZQ7 19-238)
T20 construct: extracellular domain
Description: as §1, §2

[21] = biological target: T21, hPD-L1_ECD.His point mutant T203A (human, UniProt Q9NZQ7 19-238)
T21 construct: extracellular domain
Description: as §1, §2

[22] = biological target: T22, hPD-L1_ECD.His point mutant V29A (human, UniProt Q9NZQ7 19-238)
T22 construct: extracellular domain
Description: as §1, §2

[23] = biological target: T23, hPD-L1_ECD.His point mutant T102A (human, UniProt Q9NZQ7 19-238)
T23 construct: extracellular domain
Description: as §1, §2

[24] = biological target: T24, hPD-L1_ECD.His point mutant F191A (human, UniProt Q9NZQ7 19-238)
T24 construct: extracellular domain
Description: as §1, §2

[25] = biological target: T25, hPD-L1_ECD.His point mutant T196A (human, UniProt Q9NZQ7 19-238)
T25 construct: extracellular domain
Description: as §1, §2

[26] = biological target: T26, hPD-L1_ECD.His point mutant N96A (human, UniProt Q9NZQ7 19-238)
T26 construct: extracellular domain
Description: as §1, §2

T17 sequence (Q9NZQ7 19-238 D215A): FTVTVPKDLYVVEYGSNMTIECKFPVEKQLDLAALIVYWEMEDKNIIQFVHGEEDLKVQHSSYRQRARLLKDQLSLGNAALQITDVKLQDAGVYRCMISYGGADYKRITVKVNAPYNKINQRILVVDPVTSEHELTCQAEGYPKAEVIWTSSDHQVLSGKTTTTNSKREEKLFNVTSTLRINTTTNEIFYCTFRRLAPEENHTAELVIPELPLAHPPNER
T10 sequence (Q9NZQ7 19-238 Y81A): as the sequence (Q9NZQ7 19-238 D215A) above, with Y63A, A197D counted along it
T16 sequence (Q9NZQ7 19-238 R186A): as the sequence (Q9NZQ7 19-238 D215A) above, with R168A, A197D counted along it
T8 sequence (Q9NZQ7 19-238 K62A): as the sequence (Q9NZQ7 19-238 D215A) above, with K44A, A197D counted along it
T3 sequence (Q9NZQ7 19-238 A98G): as the sequence (Q9NZQ7 19-238 D215A) above, with A80G, A197D counted along it
T14 sequence (Q9NZQ7 19-238 Q107A): as the sequence (Q9NZQ7 19-238 D215A) above, with Q89A, A197D counted along it
T7 sequence (Q9NZQ7 19-238 D122A): as the sequence (Q9NZQ7 19-238 D215A) above, with D104A, A197D counted along it
T13 sequence (Q9NZQ7 19-238 N35A): as the sequence (Q9NZQ7 19-238 D215A) above, with N17A, A197D counted along it
T25 sequence (Q9NZQ7 19-238 T196A): as the sequence (Q9NZQ7 19-238 D215A) above, with T178A, A197D counted along it
T15 sequence (Q9NZQ7 19-238 A109G): as the sequence (Q9NZQ7 19-238 D215A) above, with A91G, A197D counted along it
T4 sequence (Q9NZQ7 19-238 M115A): as the sequence (Q9NZQ7 19-238 D215A) above, with M97A, A197D counted along it
T1 sequence (Q9NZQ7 19-238 N183A): as the sequence (Q9NZQ7 19-238 D215A) above, with N165A, A197D counted along it
T11 sequence (Q9NZQ7 19-238 L106A): as the sequence (Q9NZQ7 19-238 D215A) above, with L88A, A197D counted along it
T6 sequence (Q9NZQ7 19-238 L74A): as the sequence (Q9NZQ7 19-238 D215A) above, with L56A, A197D counted along it
T18 sequence (Q9NZQ7 19-238 S34A): as the sequence (Q9NZQ7 19-238 D215A) above, with S16A, A197D counted along it
T19 sequence (Q9NZQ7 19-238 K105A): as the sequence (Q9NZQ7 19-238 D215A) above, with K87A, A197D counted along it
T9 sequence (Q9NZQ7 19-238 N63A): as the sequence (Q9NZQ7 19-238 D215A) above, with N45A, A197D counted along it
T21 sequence (Q9NZQ7 19-238 T203A): as the sequence (Q9NZQ7 19-238 D215A) above, with T185A, A197D counted along it
T23 sequence (Q9NZQ7 19-238 T102A): as the sequence (Q9NZQ7 19-238 D215A) above, with T84A, A197D counted along it
T26 sequence (Q9NZQ7 19-238 N96A): as the sequence (Q9NZQ7 19-238 D215A) above, with N78A, A197D counted along it
T22 sequence (Q9NZQ7 19-238 V29A): as the sequence (Q9NZQ7 19-238 D215A) above, with V11A, A197D counted along it
T24 sequence (Q9NZQ7 19-238 F191A): as the sequence (Q9NZQ7 19-238 D215A) above, with F173A, A197D counted along it
T20 sequence (Q9NZQ7 19-238 K185A): as the sequence (Q9NZQ7 19-238 D215A) above, with K167A, A197D counted along it
T5 sequence (Q9NZQ7 19-238 V147A): as the sequence (Q9NZQ7 19-238 D215A) above, with V129A, A197D counted along it
T2 sequence (Q9NZQ7 19-238 T181A): as the sequence (Q9NZQ7 19-238 D215A) above, with T163A, A197D counted along it
T12 sequence (Q9NZQ7 19-238 E218A): as the sequence (Q9NZQ7 19-238 D215A) above, with A197D, E200A counted along it

B1: 1.14.4 (antibody, V domains shown)
VH: EVQLLESGGGLVQPGGSLRLSCAASGFTFSSYAMSWVRQAPGKGLEWVSGISGSGGFTYYADSVKGRFTISRDNSKNTLYLQMNSLRAEDTAVYYCAKPPRGYNYGPFDYWGQGTLVTVSS
VL: SYVLTQPPSVSVAPGQTARITCGGNNIGSKSVHWYQQKPGQAPVLVVYDDSDRPSGIPERFSGSNSGNTATLTISRVEAGDEADYYCQVWDSSSDHVVFGGGTKLTVL
notes: Fully human monoclonal antibody with a human constant region of IgG4 isotype
[1]
  fold change: 0.944 fold
[2]
  fold change: 0.947 fold
[3]
  fold change: 1.01 fold
[4]
  fold change: 1.02 fold
[5]
  fold change: 1.02 fold
[6]
  fold change: 1.02 fold
[7]
  fold change: 1.22 fold
[8]
  fold change: 0.169 fold
[9]
  fold change: 0.285 fold
[10]
  fold change: 0.692 fold
[11]
  fold change: 0.732 fold
[12]
  fold change: 0.732 fold
[13]
  fold change: 0.788 fold
[14]
  fold change: 0.792 fold
[15]
  fold change: 0.797 fold
[16]
  fold change: 0.805 fold
[17]
  fold change: 0.811 fold
[18]
  fold change: 0.813 fold
[19]
  fold change: 0.816 fold
[20]
  fold change: 0.853 fold
[21]
  fold change: 0.87 fold
[22]
  fold change: 0.882 fold
[23]
  fold change: 0.887 fold
[24]
  fold change: 0.897 fold
[25]
  fold change: 0.898 fold
[26]
  fold change: 0.924 fold

— patent US20250313634A1 (WUXI BIOLOGICS SHANGHAI, published 2025)
